Reference: patent US20230064978A1, “CYCLIC PEPTIDE RECEPTOR LANTHIONINE SYNTHETASE C-LIKE PROTEIN (LANCL) AND USES THEREOF” (LATERAL IP PTY LTD, priority 2019, published 2023)
Entries after “also recorded” stand apart in the source; their conditions may differ. Bridges are numbered along the chain shown (N, C = ends). Where no end group is shown, it is not given here.

What was measured:
[1] = test system: DRG neurons; experiment: Confocal microscopy of PAL probe binding in DRG cell cultures, spinal nerve ligation model; assay type: cell-based, Sprague Dawley rats; conditions: specificity control; excess unlabeled competitor
Description: LAT9991-PAL was used in conjunction with confocal microscopy to visualise the location of potential target(s), noting that analgesic agents can have activity at several sites, either on central or peripheral neurons, or on glial or inflammatory cells that are in proximity to neurons. To identify the cell types to which LAT9991-PAL binds, 3-day cell cultures of DRG from neuropathic or control sites were taken from animals with neuropathy due to spinal nerve ligation. Briefly, L5 and L6 spinal nerves of male Sprague Dawley rats were ligated to create a robust and long-lasting mechanical allodynia of the injured hind paw. Presence of neuropathic pain was confirmed 2 weeks post-spinal nerve ligation surgeries (day 14) using von Frey (VF) filaments (up-and-down method) applied on ipsilateral (injured) and contralateral (non-injured) paw). Live DRG cells were dissected out as described previously and incubated with LAT9991-PAL for 1 hour prior to UV irradiation to fix the binding in situ. […] As a specificity control, the binding of LAT9991-PAL to the neuropathic DRG was blocked in the presence of an excess amount of unlabeled LAT9991 peptide.

[2] = biological target: T1, human recombinant LANCL1 (Homo sapiens, UniProt O43813); experiment: In-gel fluorescence: photolabelling of recombinant LANCL1 with PAL probes, with or without excess competitor; assay type: binding
T1 construct: purchased ABCAM ab181923; host or cells: E. coli
T1 sequence (O43813 with tags, fused parts or gaps): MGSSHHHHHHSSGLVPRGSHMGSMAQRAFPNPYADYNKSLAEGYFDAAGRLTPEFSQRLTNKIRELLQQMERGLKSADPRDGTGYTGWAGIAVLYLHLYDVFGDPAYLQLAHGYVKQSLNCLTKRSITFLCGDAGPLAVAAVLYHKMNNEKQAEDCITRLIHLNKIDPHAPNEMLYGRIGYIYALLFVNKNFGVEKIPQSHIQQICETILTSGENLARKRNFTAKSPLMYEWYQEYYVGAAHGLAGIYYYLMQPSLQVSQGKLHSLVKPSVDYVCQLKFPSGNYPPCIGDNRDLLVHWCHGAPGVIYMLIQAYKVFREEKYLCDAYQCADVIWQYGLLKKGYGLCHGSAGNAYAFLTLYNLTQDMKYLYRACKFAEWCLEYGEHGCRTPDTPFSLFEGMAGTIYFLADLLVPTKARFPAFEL
Procedure: The in-gel fluorescence protocol can be briefly described as follows:
1. LANCL1 Labelling, Assay on 96 Well Plate, Volume of the Reaction 40 μl in PBS
3 μg/well of human recombinant LANCL1 (ABCAM catalog no. ab181923, 1 mg/ml; expressed in E. Coli and incorporating an N-terminal 23 amino acid hexaHis tag; UniProtKB/Swiss-Prot Accession no: O43813);
• Vehicle DMSO • ±LAT8881 (a cyclic peptide fragment of human growth hormone; SEQ ID NO:1) • SEQ ID NO:1) as competitor @ 25, 50, 100 or 200 μM, pre-incubation 10 min, 4 μl of a stock solution 10-fold concentrated • ±LAT9991-PAL, LAT7771-PAL or LAT9993-PAL probes @ 1 μM, incubation 30 min at room temperature on a plate agitator (protected from light), 4 μl of a stock solution @10 μM
• Irradiation @ 365 nm 20 min (4° C., on a support containing ice) Transfer 40 μl in a clean Eppendorf tube
• Reduction: DTT 10 mM, 30 min @ 56° C. • Alkylation: Iodoacetamide 30 mM, 45 min @ RT Click-iT AzideTamra of 60 μL samples
(§1) • Acetone Precipitation −20° C. ON • Dry pellet resuspended in 30 μL 1% SDS in 50 mM Tris-HCl pH 7.5 • Photolabeled LANCL1 was tagged with tetramethylrhodamine (TAMRA) azide @100 μM TAMRA azide by copper click chemistry using the Click-iT Protein Reaction Buffer Kit (ThermoFisher Scientific) during 30 minutes • Precipitation using the chloroform-methanol method, pellet was air-dried for 10 min at room temperature, resuspended in 30 μL SDS loading buffer (Bio Rad's XT Sample Buffer containing 2.5% v/v 2-mercaptoethanol) and heated (60° C., 30 min)
(§2) • SDS-PAGE (4-15% Criterion™ TGX Stain-Free™ Protein Gel, Bio Rad) • Analyzed by in-gel fluorescence scanning using a ChemiDoc™ MP Imaging System (Bio Rad) with a green LED light as an excitation source and a BP600/20 nm emission filter

[3] = biological target: LANCL1 (Rattus norvegicus, UniProt Q9QX69); experiment: Mass spectrometry of excised gel bands from PAL cross-linked homogenates (PALMS); assay type: binding; parameters: from tissue; host or cells: nerve tissue homogenate of neuropathic animals; conditions: vs un-crosslinked samples (CU) and samples with excess LAT8881 (COMP); 37 kDa band
Chain of LANCL1 (Q9QX69 whole entry): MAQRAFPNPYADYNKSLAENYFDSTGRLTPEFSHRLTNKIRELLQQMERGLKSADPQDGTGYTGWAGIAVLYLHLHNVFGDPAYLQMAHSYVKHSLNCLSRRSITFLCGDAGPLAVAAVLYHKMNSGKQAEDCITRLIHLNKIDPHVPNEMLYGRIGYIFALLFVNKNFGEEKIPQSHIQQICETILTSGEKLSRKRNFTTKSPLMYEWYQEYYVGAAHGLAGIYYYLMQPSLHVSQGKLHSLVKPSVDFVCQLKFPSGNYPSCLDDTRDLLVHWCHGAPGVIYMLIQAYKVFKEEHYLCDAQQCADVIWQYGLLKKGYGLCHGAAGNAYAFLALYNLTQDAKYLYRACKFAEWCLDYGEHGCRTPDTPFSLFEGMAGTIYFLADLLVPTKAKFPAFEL
Description: Having identified at least three molecular weight bands as representative of the potential targets, the 12-15 kD, 37 kD and 50 kD regions of the gel were excised, subjected to limited proteolysis and analysed by mass spectrometry to identify peptides from proteins that were differentially enriched. The detection of at least two different peptides from a protein that is enriched in the LAT9991-PAL cross-linked samples when compared to (i) the un-crosslinked samples and (ii) LAT9991-PAL in the presence of excess LAT8881 (SEQ ID NO:1; YLRIVQCRSVEGSCGF) was considered a positive signature. LAT9991-PAL, LAT9993-PAL and LAT7771-PAL were also used. LAT9993 (SEQ ID NO:41) has the amino acid sequence SCRSRPVESSC.

[4] = biological target: T2, human recombinant LANCL3 (Homo sapiens, UniProt Q6ZV70); experiment: In-gel fluorescence: photolabelling of recombinant LANCL3 with PAL probe, with or without excess LAT8881; assay type: binding; conditions: in-gel fluorescence after UV cross-linking
T2 construct: human recombinant LANCL3 (amino acid residues 1-420); 10xHis (N); Myc (C); purchased ABCAM ab163277; host or cells: E. coli
T2 sequence (Q6ZV70 whole entry, the tested form may be a part): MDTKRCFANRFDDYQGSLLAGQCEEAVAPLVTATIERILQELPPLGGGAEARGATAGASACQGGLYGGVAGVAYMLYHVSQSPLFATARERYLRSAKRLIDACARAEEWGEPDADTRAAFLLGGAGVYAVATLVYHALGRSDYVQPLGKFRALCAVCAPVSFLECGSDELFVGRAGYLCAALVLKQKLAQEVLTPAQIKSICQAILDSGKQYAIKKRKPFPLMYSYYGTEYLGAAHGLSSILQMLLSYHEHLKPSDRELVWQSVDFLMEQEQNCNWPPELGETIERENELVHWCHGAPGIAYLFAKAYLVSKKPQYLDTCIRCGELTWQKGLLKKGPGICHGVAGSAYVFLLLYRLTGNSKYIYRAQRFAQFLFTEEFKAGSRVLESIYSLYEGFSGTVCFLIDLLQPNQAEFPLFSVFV
Procedure: (§3) An in-gel fluorescence protocol was followed to determine whether the cyclic peptides bound to LANCL2 and LANCL3. Briefly:
(§4) 1. LANCL2 and LANCL3 Labelling, Assay on 96 Well Plate, Volume of the Reaction 40 μl in PBS
• […] of human recombinant LANCL3 (amino acid residues 1-420; ABCAM catalog no. ab163277, ˜0.07 mg/ml; expressed in E. Coli and incorporating an N-terminal 10×His tag and a C-terminal Mvc tag; UniProt Accession no: Q6ZV70);
• Vehicle DMSO • ±LAT8881 (a cyclic peptide fragment of human growth hormone; SEQ ID NO:1) • SEQ ID NO:1 as competitor @ 50, 100 or 200 μM, pre-incubation 10 min, […], incubation 30 min at room temperature on a plate agitator (protected from light), 4 μl of a stock solution @10 μM
(§5) • Irradiation @ 365 nm 20 min (4° C., on a support containing ice) • Transfer 40 μl in a clean Eppendorf tube
(§6) • Reduction: DTT 10 mM, 30 min @ 56° C. • Alkylation: Iodoacétamide 30 mM, 45 min @ RT Click-iT AzideTamra of 60 μL samples
as §1, with “for” for “during”, “Rad” for “Rad's”
as §2

[5] = test system: tissue homogenates of nerve from neuropathic animals; experiment: PAL cross-linking to nerve tissue homogenates and gel separation; assay type: binding
Description: Using a ligand driven approach, the present inventors utilized the photo-activatable cross-linking PAL from Evotec A.G. (Photo-Activated Labelling) technology that derivatizes the active cyclic peptides to allow UV-induced cross-linking to binding targets (described herein as peptide/SEQ ID NO:X-PAL). This allows subsequent detection in cells, gels of tissue isolates or in pull-down of the peptide/target complex for sequencing by mass spectroscopy (PALMS).
LAT9991-PAL was cross-linked to tissue homogenates of nerve from neuropathic animals.

[6] = biological target: T3, human recombinant LANCL2 (Homo sapiens, UniProt Q9NS86); experiment: In-gel fluorescence: photolabelling of recombinant LANCL2 with PAL probe, with or without excess LAT8881; assay type: binding; conditions: in-gel fluorescence after UV cross-linking
T3 construct: human recombinant LANCL2 (amino acid residues 1-450); GST (N); purchased ABCAM ab163277; host or cells: wheat germ
T3 sequence (Q9NS86 1-450): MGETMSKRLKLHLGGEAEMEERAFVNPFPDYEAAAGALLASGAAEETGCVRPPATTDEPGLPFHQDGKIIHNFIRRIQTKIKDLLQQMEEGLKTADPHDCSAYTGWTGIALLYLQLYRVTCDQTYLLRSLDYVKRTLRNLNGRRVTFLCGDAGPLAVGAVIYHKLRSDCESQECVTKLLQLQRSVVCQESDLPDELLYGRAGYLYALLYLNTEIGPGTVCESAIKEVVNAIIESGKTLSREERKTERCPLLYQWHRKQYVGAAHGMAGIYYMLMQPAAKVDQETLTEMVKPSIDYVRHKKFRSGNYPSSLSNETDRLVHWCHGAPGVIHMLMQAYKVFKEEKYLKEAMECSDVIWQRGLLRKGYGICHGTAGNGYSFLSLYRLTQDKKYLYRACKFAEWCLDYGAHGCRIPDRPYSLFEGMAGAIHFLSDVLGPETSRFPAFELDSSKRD
Procedure: as §3, §4
• 1 μg/well of human recombinant LANCL2 (amino acid residues 1-450; ABCAM catalog no. ab163277, ˜0.07 mg/ml; expressed in wheat germ and incorporating an N-terminal GST tag; UniProt Accession no: Q9NS86);
• Vehicle DMSO • ±LAT8881 (a cyclic peptide fragment of human growth hormone; SEQ ID NO:1) • SEQ ID NO:1 as competitor @ 50, 100 or 200 μM, pre-incubation 10 min, 4 μl of a stock solution 10-fold concentrated • ±LAT9991-PAL probes @ 1 μM, incubation 30 min at room temperature on a plate agitator (protected from light), 4 μl of a stock solution @10 μM
as §5, §6
as §1, with “for” for “during”, “Rad” for “Rad's”
as §2

Substance: CRSVEGSCG (disulfide 1-8 (inferred)) [LAT9991]
- Block of LAT9991-PAL binding to neuropathic DRG by excess unlabeled peptide [1]: blocked
- Inhibition of LAT9991-PAL binding to recombinant LANCL1 by excess competitor ([2]; probe LAT9991-PAL, excess unlabelled competitor): inhibited

Substance: LAT9993-PAL: cyclic peptide conjugate of LAT9993 (SEQ ID NO:41) with the PAL photo-activatable cross-linking group (SCRSRPVESSC; disulfide 2-11 (inferred); also: ['PAL photo-activatable cross-linking group, structure and site not given here'])
- LANCL1 bound / enriched in PAL probe cross-linked samples (mass spectrometry) [3]: enriched by several fold-changes; also recorded: bound to LANCL1
- Binding of PAL probe to recombinant LANCL3 [4]: bound to recombinant LANCL3
- Cross-linking of PAL probe to tissue homogenates of nerve from neuropathic animals [5]: shown to cross-link

Substance: LAT7771-PAL: cyclic peptide conjugate of LAT7771 (SEQ ID NO:52) with the PAL photo-activatable cross-linking group (CRIIHNNNC; disulfide 1-9 (inferred); also: ['PAL photo-activatable cross-linking group, structure and site not given here'])
- Binding of PAL probe to recombinant LANCL1 ([2]; in-gel fluorescence after UV (365 nm) cross-linking): bound to recombinant LANCL1
- LANCL1 bound / enriched in PAL probe cross-linked samples (mass spectrometry) [3]: enriched by several fold-changes; also recorded: bound to LANCL1
- Binding of PAL probe to recombinant LANCL2 [6]: bound to recombinant LANCL2
- Cross-linking of PAL probe to tissue homogenates of nerve from neuropathic animals [5]: shown to cross-link
- Molecular weight ranges of targets stained after gel separation ([5]; PAL probe cross-linked to nerve homogenates): ˜12-15 kD, ˜37 kD and ˜50 kD
